Experimental findings from US20250163167A1 (SYNTHEKINE, published 2025) are described below.

Sequences and labels used below:
T1: human IL-10 receptor (hIL-10R alpha and beta chains) on HEK-Blue IL-10 reporter cells (human, UniProt Q13651 22-578; Q08334 20-325)
T1 sequence 1: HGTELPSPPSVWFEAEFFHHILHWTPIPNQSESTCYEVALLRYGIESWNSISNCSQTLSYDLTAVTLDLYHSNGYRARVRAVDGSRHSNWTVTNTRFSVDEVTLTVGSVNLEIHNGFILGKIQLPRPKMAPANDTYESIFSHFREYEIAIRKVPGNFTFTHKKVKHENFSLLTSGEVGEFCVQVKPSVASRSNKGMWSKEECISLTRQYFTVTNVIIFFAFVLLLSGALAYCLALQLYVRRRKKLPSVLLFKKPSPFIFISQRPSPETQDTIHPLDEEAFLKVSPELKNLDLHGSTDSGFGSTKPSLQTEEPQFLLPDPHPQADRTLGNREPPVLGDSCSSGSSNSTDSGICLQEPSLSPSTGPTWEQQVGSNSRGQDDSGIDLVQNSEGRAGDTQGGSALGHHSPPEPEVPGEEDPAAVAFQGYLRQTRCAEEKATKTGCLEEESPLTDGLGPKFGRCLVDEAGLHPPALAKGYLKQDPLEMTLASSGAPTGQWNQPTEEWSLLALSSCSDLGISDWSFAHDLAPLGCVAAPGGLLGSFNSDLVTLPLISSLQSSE
T1 sequence 2: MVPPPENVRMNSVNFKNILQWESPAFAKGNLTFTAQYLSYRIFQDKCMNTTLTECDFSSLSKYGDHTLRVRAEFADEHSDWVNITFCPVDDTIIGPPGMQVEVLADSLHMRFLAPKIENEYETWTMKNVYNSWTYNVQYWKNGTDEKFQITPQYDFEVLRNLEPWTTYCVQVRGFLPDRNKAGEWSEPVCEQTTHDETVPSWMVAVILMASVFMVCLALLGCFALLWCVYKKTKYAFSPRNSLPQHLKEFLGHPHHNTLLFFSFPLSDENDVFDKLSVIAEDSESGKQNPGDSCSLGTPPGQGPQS

B1: IL10R binding molecule of SEQ ID NO: 283 (bispecific antibody)
chain: QVQLQESGGGSVQAGGSLRLSCAVSGYAYSTYCMGWFRQAPGKEREGVAAIDSGGSTSYADSVKGRFTISKDNAKNTLYLRMNSLKPEDTAMYYCAAVPPPPDGGSCLFLGPEIKVSKADFRYWGQGTQVTVSSGGGSQVQLQESGGGSVQTGGSLRLSCAASGYTYLRGCMGWFRQAPGKEREGVAVMDVVGDRRSYIDSVKGRFTISRDNAANSVYLQMDNLKPEDTAMYYCTAGPNCVGWRSGLDYWGQGTQVTVSSASHHHHHH
B2: IL10R binding molecule of SEQ ID NO: 285 (bispecific antibody)
chain: QVQLQESGGGSVQAGGSLRLSCTVSGYTYSSNCMGWFRQAPGKEREGVATIYTGGGNTYYADSVKGRFTISQDNAKNTVYLQMNNLKPEDTAMYYCAAEPLSRVYGGSCPTPTFDYWGQGTQVTVSSGGGSQVQLQESGGGSVQAGGSLRLSCAASGYTYSSYCMGWFRQAPGKEREGVAHIDSDGSTSYADSVKGRFTISKDNAKNTLYLQMNSLKPEDTAMYYCAADPIPGPGYCDGGPNKYWGQGTQVTVSSASHHHHHH
B3: IL10R binding molecule of SEQ ID NO: 284 (bispecific antibody)
chain: QVQLQESGGGSVQAGGSLRLSCTVSGYTYSSNCMGWFRQAPGKEREGVATIYTGGGNTYYADSVKGRFTISQDNAKNTVYLQMNNLKPEDTAMYYCAAEPLSRVYGGSCPTPTFDYWGQGTQVTVSSGGGSQVQLQESGGGSVQAGGSLRLSCAASGYTYSSGCMGWFRQAPGKEREAVAAINSDGSTSYADSVKGRFTISKDNAKNTLYLQMNSLKPEDTAMYYCAAEPYCSGGYPRWSVAEFGYWGQGTQVTVSSASHHHHHH
B4: IL10R binding molecule of SEQ ID NO: 286 (bispecific antibody)
chain: QVQLQESGGGSVQAGGSLRLSCTVSGYTYSSNCMGWFRQAPGKEREGVATIYTGGGNTYYADSVKGRFTISQDNAKNTVYLQMNNLKPEDTAMYYCAAEPLSRVYGGSCPTPTFDYWGQGTQVTVSSGGGSQVQLQESGGGSVQAGGSLRLSCAASRYTYNSYCMGWFRQAPGKEREGVATIDSDGMTRYADSVKGRFTISKDNAKNTLYLQMNSLKPEDTAMYYCAADADCTIAAMTTNPLGQGTQVTVSSASHHHHHH
B5: IL10R binding molecule of SEQ ID NO: 281 (bispecific antibody)
chain: QVQLQESGGGSVQAGGSLRLSCAVSGYAYSTYCMGWFRQAPGKEREGVAAIDSGGSTSYADSVKGRFTISKDNAKNTLYLRMNSLKPEDTAMYYCAAVPPPPDGGSCLFLGPEIKVSKADFRYWGQGTQVTVSSGGGSQVQLQESGGGSVEAGGSLRLSCAASGYTHSSYCMGWFRQAPGKEREGVAAIDVDGSTTYADSVKGRFTISKDNAKNTLYLQMNSLKPEDTGMYYCAAEFADCSSNYFLPPGAVRYWGQGTQVTVSSASHHHHHH
B6: IL10R binding molecule of SEQ ID NO: 287 (bispecific antibody)
chain: QVQLQESGGGSVQAGGSLRLSCTVSGYTYSSNCMGWFRQAPGKEREGVATIYTGGGNTYYADSVKGRFTISQDNAKNTVYLQMNNLKPEDTAMYYCAAEPLSRVYGGSCPTPTFDYWGQGTQVTVSSGGGSQVQLQESGGGSVQAGGSLRLSCTVSRYTASVNYMGWFRQAPGKEREGVATIFTGAGTTYYANSVKGRFTISRDNAKNTAYLQMNSLKPEDTAIYYCAVDFRGGLLYRPAYEYTYRGQGTQVTVSSASHHHHHH
B7: IL10R binding molecule of SEQ ID NO: 282 (bispecific antibody)
chain: QVQLQESGGGSVQAGGSLRLSCAVSGYAYSTYCMGWFRQAPGKEREGVAAIDSGGSTSYADSVKGRFTISKDNAKNTLYLRMNSLKPEDTAMYYCAAVPPPPDGGSCLFLGPEIKVSKADFRYWGQGTQVTVSSGGGSQVQLQESGGGSVQAGGSLRLSCAASGYSYSSYCMGWFRQAPGKEREGVATIDSDGMTRYADSVKGRFTISKDNAKNTLYLQMNSLKPEDTAMYYCAAPLYDCDSGAVGRNPPYWGQGTQVTVSSASHHHHHH

In the experiment the target is T1, human IL-10 receptor (hIL-10R alpha and …). In words: cell-based or functional assay.
Turning to B1, the “Abs 630 (25 nM)” value was determined as 0.48 Abs 630 and the “Abs 630 (100 nM)” value is 0.39 Abs 630.
Regarding B2, the “Abs 630 (25 nM)” value came to 0.48 Abs 630 and the “Abs 630 (100 nM)” value amounted to 0.39 Abs 630.
Taken in the same sequence, the figures for B3 were 0.45 Abs 630 and 0.34 Abs 630.
Turning to B4, the “Abs 630 (25 nM)” value amounted to 0.46 Abs 630 and the “Abs 630 (100 nM)” value is 0.39 Abs 630.
Taken in the same sequence, the figures for B5 were 0.66 Abs 630 and 0.69 Abs 630.
On to B6, for which the “Abs 630 (25 nM)” value amounted to 0.9 Abs 630 and the “Abs 630 (100 nM)” value worked out at 0.51 Abs 630.
In the same order, the values of B7 are 0.44 Abs 630 and 0.36 Abs 630.
